# Results taken from US20050032689A1, “Methods for treatment or diagnosis of disease or disorders associated with an APB domain” (New York University, priority 1994, published 2005).
# Key:
# [1] = target: T1, binding of the Grb7 SH2 domain to EGF receptor (Mus musculus, UniProt Q03160); experiment: Phosphotyrosine inhibition of Grb7 SH2 domain binding to EGF receptor; conditions: 30 mM phosphotyrosine; results not shown
# T1 construct: made in house; host or cells: bacteria
# Text: (§1) Accordingly we examined the binding of the Shc amino terminus (hereafter referred to as Shc 1-209) in further detail. First we determined if the binding of Shc 1-209 was dependent on EGF receptor activation. To perform these studies we generated Shc 1-209 as a GST fusion protein and examined its ability to bind EGF receptor from lysates of NIH 3T3 cells. […] We asked if this binding was dependent on receptor autophosphorylation. EGF receptor was immunoprecipitated from unstimulated cells and then tyrosine-phosphorylated in vitro by adding Mn^2+ and ATP. […] To confirm that the binding was dependent on autophosphorylation, we examined the binding of Shc 1-209 to EGF receptor mutants lacking autophosphorylation sites. […] This may represent a difference in the affinity of interactions or a basic difference in the molecular mechanism of EGF receptor interaction with Shc 1-209 versus SH2 domains.
# [2] = target: T2, binding of Shc 1-209 to the EGF receptor (Mus musculus, UniProt P98083); experiment: Phosphotyrosine inhibition of Shc 1-209 binding to EGF receptor; conditions: 30 mM phosphotyrosine; results not shown
# T2 construct: we generated Shc 1-209 as a GST fusion protein; made in house; host or cells: bacteria (pGSTag vector)
# T2 sequence (P98083 111-319): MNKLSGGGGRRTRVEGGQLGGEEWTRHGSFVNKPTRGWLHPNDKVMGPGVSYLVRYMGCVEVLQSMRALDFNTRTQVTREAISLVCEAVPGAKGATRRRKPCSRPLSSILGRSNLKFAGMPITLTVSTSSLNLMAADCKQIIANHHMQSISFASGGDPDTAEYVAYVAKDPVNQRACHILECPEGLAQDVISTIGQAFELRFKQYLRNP
# Text: as §1
# EGF receptor = target: T3, EGF receptor (Homo sapiens, UniProt P00533); experiment: Binding of GST fusion proteins on glutathione-agarose beads to EGF receptor from HER14 cell lysates, immunoblot; conditions: GST fusion protein, lysates of EGF-stimulated or unstimulated cells
# T3 construct: expressed in transfected cells; host or cells: HER14 (NIH 3T3 cells expressing human EGF receptor)
# Description: FIGS. 2A and 2B. Association of GST-Shc 1-209 with the EGF Receptor (EGFR). A, HER14 lysates from either EGF-stimulated (+) or unstimulated (−) cells (5×10^6 cells) were incubated with 3 μg of GST fusion protein immobilized on glutathione-agarose beads. The bound proteins were washed, subjected to SDS-PAGE, transferred to nitrocellulose and immunoblotted with anti-EGF receptor antibody, anti-C (anti-EGFR). HER14 lysate (4×10^5 cells) was run directly on the gel in lanes 5 and 6. B, unstimulated HER14 lysates (5×10^6 cells) were immunoprecipitated with anti-EGFR antibody (mAb 108). The immobilized receptor was then phosphorylated (+) by the addition of 5 mM MnCl2 and 50 μM ATP or left unphosphorylated (−) by adding MnCl2 alone. Bacterial lysates containing 5 μg of GST, GST-Grb7, and GST-Shc 1-209 were then diluted in 1 ml of 1% Triton X-100 lysis buffer, added to the immobilized receptor and incubated at 4° C. for 90 min. The bound proteins were washed and together with 40 μl of the post-binding supernatant separated by SDS-PAGE and transferred to nitrocellulose. The bound fractions (left panel) and supernatants (right panel) were immunoblotted with anti-GST. FIGS. 4A, 4B, 4C and 4D. Binding of Shc fragments to growth factor receptors. A, schematic diagram illustrating the Shc fragments used in binding studies. Full length murine p52^shc is indicated in (i) while (ii)-(vi) were generated as GST fusion proteins for use in receptor binding studies. B, association of various GST fusion proteins with activated EGF receptor (EGFR). Binding was performed as in FIG. 2A with the exception that all lysates were stimulated with EGF. All studies used 3 μg of fusion proteins except for the Shc SH2 where 10 μg was used. Immunoblotting was performed with anti-phosphotyrosine. C, binding of Shc fusion proteins to NIH 3T3 cells expressing a HER1/2 chimera. This chimera consists of the EGF receptor extracellular binding domain and the intracellular region of HER2/neu. After stimulation of these cells with EGF (200 ng/ml) lysates were prepared and binding as well as blotting studies were performed as in B using anti-phosphotyrosine antibody. D, binding of Shc 1-209 to TrkA. Beads containing 10 μg of GST fusion proteins Shc 1-209, phospholipase C-γ (PLC-γ) SH2 (contains both N and C SH2 domains), or GST alone were added to lysates from 2×10^7 PC12 cells stimulated with 50 ng/ml nerve growth factor (lanes 1, 2, and 4). The binding of the same amount of lysate to 2 μg of anti-TrkA antibody is shown as a positive control and to indicate the position of TrkA on the blot (lane 3). Otherwise, the binding and blotting were performed as in B using anti-phosphotyrosine antibody. […]
# [3] = system: HER2/neu (HER1/2 chimera); experiment: Binding of GST-Shc fusion proteins to HER1/2 chimera from NIH 3T3 lysates, anti-phosphotyrosine blot; conditions: EGF-stimulated NIH 3T3 lysates
# Description: FIGS. 4A, 4B, 4C and 4D. Binding of Shc fragments to growth factor receptors. A, schematic diagram illustrating the Shc fragments used in binding studies. Full length murine p52^shc is indicated in (i) while (ii)-(vi) were generated as GST fusion proteins for use in receptor binding studies. B, association of various GST fusion proteins with activated EGF receptor (EGFR). Binding was performed as in FIG. 2A with the exception that all lysates were stimulated with EGF. All studies used 3 μg of fusion proteins except for the Shc SH2 where 10 μg was used. Immunoblotting was performed with anti-phosphotyrosine. C, binding of Shc fusion proteins to NIH 3T3 cells expressing a HER1/2 chimera. This chimera consists of the EGF receptor extracellular binding domain and the intracellular region of HER2/neu. After stimulation of these cells with EGF (200 ng/ml) lysates were prepared and binding as well as blotting studies were performed as in B using anti-phosphotyrosine antibody. D, binding of Shc 1-209 to TrkA. Beads containing 10 μg of GST fusion proteins Shc 1-209, phospholipase C-γ (PLC-γ) SH2 (contains both N and C SH2 domains), or GST alone were added to lysates from 2×10^7 PC12 cells stimulated with 50 ng/ml nerve growth factor (lanes 1, 2, and 4). The binding of the same amount of lysate to 2 μg of anti-TrkA antibody is shown as a positive control and to indicate the position of TrkA on the blot (lane 3). Otherwise, the binding and blotting were performed as in B using anti-phosphotyrosine antibody. […] Protein concentration was determined by SDS-PAGE (polyacrylamide gel electrophoresis) using bovine serum albumin as a standard. […]
# T1 sequence (Q03160 434-530 limits assumed): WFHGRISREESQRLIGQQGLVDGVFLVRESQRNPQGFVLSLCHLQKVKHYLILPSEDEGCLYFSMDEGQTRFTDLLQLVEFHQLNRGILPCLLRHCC
Molecule,inhibition of binding of the Grb7 SH2 domain to the EGF receptor [1],inhibition of binding of Shc 1-209 to the EGF receptor [2],binding to EGF receptor (EGF receptor),binding to HER2/neu [3]
N[C@@H](Cc1ccc(OP(=O)(O)O)cc1)C(=O)O [phosphotyrosine],completely inhibited,partially inhibit,–,–
"Shc 46-209: amino acids encoding the amino terminus of p46Shc, GST fusion protein (protein, UniProt P98083 46-209, looked up, fragment, GST fusion, amino acids encoding the amino terminus of p46Shc, GST fusion protein) LPPLPGDDSPTTLCSFFPRMSNLKLANPAGGRLGPKGEPGKAAEDGEGSAGAALRDSGLLPLLQDMNKLSGGGGRRTRVEGGQLGGEEWTRHGSFVNKPTRGWLHPNDKVMGPGVSYLVRYMGCVEVLQSMRALDFNTRTQVTREAISLVCEAVPGAKGATRRR",–,–,can bind both EGF receptor and HER2/neu receptor,can bind both EGF receptor and HER2/neu receptor
"Shc 85-209: Shc construct with a more severe amino-terminal deletion, GST fusion protein (protein, UniProt P98083 85-209, looked up, fragment, GST fusion, Shc construct with a more severe amino-terminal deletion, GST fusion protein) GKAAEDGEGSAGAALRDSGLLPLLQDMNKLSGGGGRRTRVEGGQLGGEEWTRHGSFVNKPTRGWLHPNDKVMGPGVSYLVRYMGCVEVLQSMRALDFNTRTQVTREAISLVCEAVPGAKGATRRR",–,–,did not bind growth factor receptors,did not bind growth factor receptors
